Source: publication PMC4930699 (Cancer research, 2016)

Target: the molecule itself
Experiment: cross-linking

B1: Flag-PKM2 K305R (enzyme)
chain: not shown
binding result: binds
